Measured values: the nanobody polyreactivity screen of Harvey et al. (2022)

Assay: yeast display, Sf9 membrane polyspecificity reagent, FACS + sequencing; frameworks hold sequencing errors
Summary of the method: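 Genes from sorted yeast were amplified by colony PCR, read by MiSeq 2 × 250 sequencing and filtered on CDR length. These cells carried a synthetic nanobody library in Saccharomyces cerevisiae BJ5465 and were sorted by FACS into low and high (top ~1%) gates on anti-HA and streptavidin fluorescence. Polyreactivity is labelled according to the gate of origin.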

| Sequence | polyreactivity (PSR sort gate) |
| --- | --- |
| QVQLVESGGGLVQAGGSLRLSCAASGRTFRGNDMGWYRQAPGKERELVAAISWSGGGTYYADSVKGRFTISRDNAKNTVYLQMNSLKPEDTAVYYCAADLPHFRYYYWGQGTQVTVSS | low polyreactivity |
| QVQLLESGGGLVQAGGSLRLSCAASGSTFEANTMGWYSQAPGKDRELVASISSSGGSTNYADSVKGRFTISRDNAKNTVYLQMNRLKQEDTAVYYCAVRCTYARWNWRTADSSRDYWGQGTQVTVSS | low polyreactivity |
| QVQLVESGGGLVQAGGSLRLSCAASGSTFNQNAMGWYRQAPGKERELVAAITVDGSSTYYADSVKGRFTISRDNAKNTVYLQMNSLKPEDTAVYYCAAGYSARSSGYTGGYDYWGQGTQVTVSS | high polyreactivity |
| QVQLVESGGGLVQAGGSLRLSCAASGSIISYYAMGWYRQAPGKERELVATITSGGITYYADSVKGRFTISRDNAKNTVYLQMNSLKPEDTAVYYCNARYPHGYSSYYRFGYWGQGTQVTVSS | high polyreactivity |
| QVQLVESGGGLVQAGGSLRLSCAASGRIIGYYTMGWYSQAPGKERELVAAITSGGRTYYADSVKGRFTISRDNAKNTVYLQMNSLKPEDTAVYYCAADWYYRSDYWGQGTQVTVSS | low polyreactivity |
| QVQLVESGGGLVQAGGSLRLSCAASGFTFRHYAMGWYRQAPGKERELVAGITIRGTTYYADSVKGRFTISRDNAKNTVYLQMNSLKPEDTAVYYCAAAWRLGHLRFNSWGQGTQVTVSS | high polyreactivity |
| QVQLVESGGGLVQAGGSLRLSCAASGSTFLYYAMGWYRQAPGKERELVAVIRLDAGRTYYADSVKGRFTISRDNAKNTVYFQMNSLKPEDTAVYYCAAKGSFRTYGGGNYWGQGTQVTVSS | high polyreactivity |
| QVQLVESGGGIVQAGGSLRLSCAASGFTFRTYTQGWYRQAPGKERELVAAIRSSGGGTYYADSVKGRFTISRDNAKNTVYLQMNSLKPEDTAVYYCIAVRYNSVGYDFWGQGTQVTVSS | high polyreactivity |
| QVQLVESGGGLVQAGGSLRLSCAASGFIRYYAMGWYRNAHGKERELVAAITATGASTYYADSVKGRFTISRDNAKNTVYLQMNSLKPEDTAVYYCIVRLRISSGYWGQGTQVTVSS | high polyreactivity |
| QVQLVESGGGLVQAGGSLRLSCAASGSTFPDYAMGWYRQAPGKEREFVASITWSDGSTYYADSVKGRFTISRDNAKNTVYLQMNSLKPEDTAVYYCIADYVYYYIPVVYEYDYWGQGTQVTVSS | high polyreactivity |
| QVQLVESGGGLVQAGGSLRLSCAASGSTFVRNAMGWYRQAPGKERELVAAISWSGGRTYYADSVKGRFTISRDNAKNTVYLQMNSLKPEDTAVYYCAARGYAGVDYDYWGQGTQVTVSS | high polyreactivity |
| QVQLVDSGGGLVQAGGSLSLSCAASGSILRYYAMVWYRQAPGKERELVAAISRSGGSTYYADSVKGRVTISGDNAKNKVYLLMNRLKPEDTAVYYCANSDFGHHVTGFGYWGQGTQVTVSS | low polyreactivity |
| QVQLVESGGGLVQAGGSLRLSCAASGSTFYYNVMGWYRQAPGKERELVAAISNAGTTNYADSVKGRFTISRDNAKNTVYLQMNSLKPEDTAVYYCNAEFIGPEGYWWYIEYYYWGQGTQVTVSS | low polyreactivity |
| QVQLVESGGGLVQAGGSLRLSCAASGSTFYPYALGWYRQAHGKVRELVATISFSGGRTYYADSVKGRFTISRDNAKNTVYLQMHSLKPEDTAVYYCAAVSYWHDGHRGNYWGQGTQVTVSS | low polyreactivity |
| QVQLVESGGGLVQAGGSLRLSCAASGRIFIGYAMGWYRQAPGKERELVAAITSGGGTYYADSVKGRFTISRDNAKNTVYLQMNSLKPEDTAVYYCAAAQRYPIKYYYWGQGTQVTVSS | low polyreactivity |
| QVQLVESGGGLVQAGGSLRLSCAASGSTFRYYALGWYRQAPGKERELVASISIGGGPTYYADSVKGRFTISRDNAKNTVYLQMHIQKPEDTAVYYCAAERTIRAARPVVRTFDYWGHGTQVTVSS | low polyreactivity |
| QFQLVESGGGLVQAGGSLRLSCAASGNIFGYYALGWYRQAPGKEREFVAAISGGDSTNYADSVKGRFTNSRDNAKNTVYLQMNSLQPEDTAVYYCARDYWSGASGGYPYDYWGQGTQVTVSS | low polyreactivity |
| QVQLVESGGGLVQAGGSLRLSCDPSGSIFYRNAMVWYRPAPGKERELVATITVNGGRTYYADSVKGRFTISRDNAKNTVYLQMNSLKPEDTAVYYCAKDVHRWYPYDYWGQGTQVTVSS | low polyreactivity |
| QVQLVESVGGLDQAGGSLPLSCAASGSTLAVYDMGWSRQAPGKESELVAAISTTGGRTYYADSVKGRFTISRDNSKNTVYLQMNRLKPEDTAVYYCNADAEDVIYYEYDYCGQGTQVTVSS | low polyreactivity |
| QVQLVESGGGLVQAGGSHRLSCAASGRIFALNTMRWYRQAPGKEREFVAAITTSGGSTYADSVKGRFTISRDNAKNTVYLQMNSLKPEDTAVYYCNKEYYHKWAPTYDYWGQGTEVTVSS | low polyreactivity |
| QDQLVESGGGLFQAGGSLRLSCAASGFTFTSYNMGWYRQAPGKEMELVAGISLSGGDTSYADSVKGRFTISRDNAKNTVYLQMNSMKPEDTAVYFCAKSYVNYAFDSWGHGTQVTVSS | high polyreactivity |
| QVQLVESGGGLVQAGGSLRLSCAASGSIFSFYAMGWYRQAPGKERELVAAITSDGSTDYADSVKGRFTISRDNAKNTVYLQMNSLKPEDTAVYYCAADYIVRVVSRYRYGYEYWGQGTQVTVSS | low polyreactivity |

| Sequence | polyreactivity (PSR sort gate) |
| --- | --- |
| QVQLVESGGGLVQAGGSLRLSCAASGSIFQANAMGWYRQAPGKEWEFVAAINWSTGTTYYADSVKGRFTISRDNAKNTVYLQMNSLKPEDTAVYYCNASDQAKYDYWGQGTQVTVSS | low polyreactivity |
| QVQLVESGGGLDQAGGSLRLSCAASGSTFVGYAMGWYRQAPGKERELVAAISQSDVSTYYADSVKGRFTISRDNAKNTVYLQMNSLKPEDTAVYYCAADRGGLRWFWQVLYDYWGQGTQVTVSS | low polyreactivity |
| QVHLVESGGGLVQAGGSLRLSCAASGLTFSSYSMGWYRQAPAKERELVATITSSGGDNTNYADSVKGRFTISRDNAKNTVYLQMNSLKPEDTAVYYFNKEGQQSYRWRMDYWGQGTQVTVSS | low polyreactivity |
| QVQLEESGGGFVQAGGSLRLSCAASGSIFYYYVMGLYRQAAGKERELVAALTNSDRTYYADSVKGRFTISRDNAKNTVYLQMTSLKPEDTAVYYCAADYYWSPYYVYQFDYWGQGTQVTVSS | low polyreactivity |
| QVQHVDSRGGLVQAGGSLRLSCAASGSIVPWNDMGWYRQAPGKERQLVAAITYRGGRTYYADSVKGRFTISRDNAKNTVYLQMNSLKPEDTAVYYCATKSRRNSPRMDYWGQGTQVTVSS | high polyreactivity |
| QVQLVESGGCLVQAGGSLRLSCAASGSTIYAMGWYRQAPGKERELVAGINRSGTRTYYADSVKGRFTISRDNAKNTVYLQMNSLKPEDTAVYYCAALVYRPTYGYIFDYWGQGTQVTVSS | high polyreactivity |
| QVQLVESGGGLVQAGGSLRLSCAASGFTFKYNAMGWYRHAPGKERELVAAISSSDGTNYADSVKGRFTISRDNAKNTVYLQMNSLKQEDTAVYYCAADYFYLEDYYYWGQGSQVTVSS | low polyreactivity |
| QVQLVESGGGLVQAGGSLRLSCAASGSIIGRYTMGWYRQAPGKERELVAAISRSGGSTYYADSVKGRFTISRDNSHNTVYLQMNSPKPEDTAVYYCAKRTYTPRVERLYSSYDYWGQGTQVTVSS | high polyreactivity |
| QVQLVESGGGLVQAGGSLRLSCAASGYTFLYYAMGWYRQAPGKERELVAAISSDGTTNYADSVKGRFTISRDNAKNTVYLQMNSLKPQVTAVYYCAADVFNWGYYYWGQGTQVTVSS | low polyreactivity |
| QVQLVESGGGLVQAGGSLRLSCAASGSTLNRNVMGWYRQAPGKERELVAVITYGVGSTYYADSVKGRFTISRDNAKNTVYLQMNSLKPEDTAVYYCNKDPLVFDYWGQGTQVTVSS | low polyreactivity |
| QVQLLESGRGLVQAGGSLRLSCAPSGLTFRYMAMGWYIQAPGKERELVAAINSGGRTNYADSVKGRFTISRDNAKNTVFLQMNSLKPEDTAVYYCAAVRHWTVGWTYYYWGQGTQVTVSS | high polyreactivity |
| QVQLVESGGGLVQAGGSLRLSCAASGFTFCRYAMGWYRQAPGKEREFVAGISSSGGSTYYADSVKGRFTISRDNAKNTVYLQMNSLKPEVTAVYYCNKARYFTGQRYDYWGQGTQVTVSS | high polyreactivity |
| HVKLQESCGGLVPAGGSLRLSSAASATISYARNMASYLQAPGTERELVAAIDRGASTYYADSVKGLFTISRDNAKNTVYLQIYSLKPEDTAVYYCAAEYHDRWEDRYWGQGTQGTVSS | high polyreactivity |
| QVQLVESGGGLVQAGGSLRLSCAASGRTFYFYAMGWYRQAPGKEWELVAAISWSGGRTYYADSVKGRFTISRDNAKNTVYLQMNSLNPEDTAVYYCAAEYRWSVGYWRYGLDDYWGQGTQVTVSS | high polyreactivity |
| QVQLVESGGGLVQAGGSLLLSCSASVLIFYDNDMGWYRQAPGKERVFVAAITSLGGSTYYADSVKGRFTISRDNAKNTVYLQMNSLKPEDTAVYYCNVKSKYYSPNYDYWGQVTQVTVSS | low polyreactivity |
| QVQLVESGGRLVQAGGSLLLSCAASGFTFDDYAMGRYRQAPGTERELVASITTSGASKYYADSVKGRFTISRDNAKNPVYLQMNSLKPEDTAVYYCAVDNDSYTSPRAGDDYWGQGTQVTVSS | low polyreactivity |
| QVQLAESGGGLVQAGGSLRLSCAASGLTFNAYAMGWYRQAPGKERELVADITTSDGSTFYADSVKGRFTISRDNAKNTVYLQMNRLKPEDTAVYYCNADAYGWYSGPWFKWLLWYDYWGQGTQVTVSS | low polyreactivity |
| QVQLVESGGGLVQAGGSLRLSCAASGRIFTIYAMGWYRQAPGKERELVAAISGGGGITNYADSVKGRFTISRDNAKNTVYLQMNSLKPEDTAVYYCAATPRAPRTISLYNYWGQGTQVTVSS | high polyreactivity |
| QVQLQESGGGLMQAGGNLRLSCAASGYISTHYDMDWSRQAPGKERELVARIDDGAITNYADSVKGRFTISRDNATNTVYLQMNSLKPEDTAVYYCAVYSGDDYYHDYWGQGTQVTVSS | low polyreactivity |
| QVQLVESGGGLVQEGGSLRLSCAASGRNFGRYAMVRYRQAPGKERELVAAISSSGVATYYADSVKGRFTISRDNAKNTVYLQMNSLKPEDTEVYYCNSLYRVFYGFYYWGQGTQVTVSS | high polyreactivity |
| QVQLVESGGGLVQAGGSLRLSCAASGRTFVGYAMGWDRQAPGKERELVATITSSGRTNYADSVKGRCTISRDNAKNTVYLQMNSLKPEDTAVYYCNKQRTRWYDYWGQGTQVTVSS | high polyreactivity |
